Values of other authors, collected in article PMC7618755.

Tests used:
[1] = target: PD-L1 (Homo sapiens) (UniProt Q9NZQ7)
[2] = target: CD80 (Homo sapiens) (UniProt P33681)

Chain of UniProt Q9NZQ7 (Q9NZQ7 19-238): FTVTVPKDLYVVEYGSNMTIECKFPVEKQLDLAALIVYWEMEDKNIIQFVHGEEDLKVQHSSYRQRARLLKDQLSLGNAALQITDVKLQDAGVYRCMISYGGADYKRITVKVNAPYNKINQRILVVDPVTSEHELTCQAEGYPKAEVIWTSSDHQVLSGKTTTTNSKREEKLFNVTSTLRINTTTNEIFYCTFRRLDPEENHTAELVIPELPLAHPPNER

Kd [1]: 20 µM | Kd [2]: 35 µM
Substance: CD80 (from UniProt P33681)
